The target in assay [1] is T1, recombinant His-tagged Neuropilin-1 b1b2 domain (UniProt O14786 273-586, limits assumed).
T1 construct: domain: b1b2; also called NRP-1; NRP1
T1 sequence (looked up): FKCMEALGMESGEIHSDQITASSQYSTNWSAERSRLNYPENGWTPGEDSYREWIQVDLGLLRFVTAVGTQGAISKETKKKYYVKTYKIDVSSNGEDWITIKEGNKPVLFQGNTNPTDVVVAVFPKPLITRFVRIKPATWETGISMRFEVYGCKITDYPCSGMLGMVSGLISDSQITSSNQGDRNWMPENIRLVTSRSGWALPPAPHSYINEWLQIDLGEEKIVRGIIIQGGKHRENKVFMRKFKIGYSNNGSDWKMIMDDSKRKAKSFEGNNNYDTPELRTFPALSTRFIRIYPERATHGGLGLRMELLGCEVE
As to the kind of experiment: T7 phage binding to recombinant NRP-1 b1b2.

Assay [2] concerns the target T2, recombinant His-tagged fibronectin extra domain B (FN-EDB).
T2 construct: 112 amino acids, expressed in E. coli from pET28a+ with N-terminal His-tag; also called fibronectin EDB-domain
The assay can be described thus: T7 phage binding to recombinant protein.

Assay [3] deals with T3, recombinant His-tagged tenascin-C C domain (TNC-C).
T3 construct: 112 amino acids, expressed in E. coli from pET28a+ with N-terminal His-tag
T3 chain: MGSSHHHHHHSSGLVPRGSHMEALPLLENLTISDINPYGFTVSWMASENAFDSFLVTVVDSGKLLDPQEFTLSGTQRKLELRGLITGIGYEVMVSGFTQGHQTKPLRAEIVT
As to the kind of experiment: T7 phage binding to recombinant protein.

For assay [4], the target named is T2, recombinant His-tagged fibronectin …. The assay can be described thus: binding specificity, T7 peptide phage. The method, then: (§1) To identify bispecific peptides that interact with both TNC-C and FN-EDB, cross screens were performed on both targets. During the first round of selection, microtiter plates coated with 20 μg/ml recombinant purified TNC-C were blocked with PBS containing 1% bovine serum albumin (BSA), followed by incubation with 5×10⁸ pfu of phages in PBS at 4° C. overnight, by washes to remove background, and by phage rescue and amplification in BLT5403 strain of E. coli (Novagen, EMD Biosciences, MA, USA) (Teesalu et al., Methods Enzymol. 503:35-56 (2012)). The following rounds of biopanning were carried on Ni-NTA Magnetic Agarose Beads (QIAGEN, Hilden, Germany) coated with hexahistidine-tagged FN-EDB (3 μg/μl beads) at room temperature. After 5 rounds of selection, a set of random clones was sequenced, and individual peptide-phage clones and control (G7 peptide-displaying or insertless) phages were incubated with FN-EDB and TNC-C-coated magnetic beads. RPARPAR phage (SEQ ID NO:5) and His-tagged NRP-1 b1b2 domain were used as positive control (Teesalu et al., Proc. Natl. Acad. Sci. U.S.A 106:16157-62 (2009)). To address the specificity of the peptide phage binding to the FN-EDB and TNC-C, the protein-coated beads were pre-incubated with 20 μg/ml blocking rabbit polyclonal antibodies.
(§2) Immobilized FAM-PL1 was probed with recombinant His-tagged EDB and TNC-C (or control BSA), followed by sequential incubation with rabbit anti-His-tag primary antibody, secondary goat anti-rabbit HRP antibody and a chromogenic peroxidase reaction.

Assay [5] has as its target T3, recombinant His-tagged tenascin-C C …. The assay can be described thus: binding specificity, T7 peptide phage. On the procedure: as §1, §2
Assay [6] concerns the target T1, recombinant His-tagged Neuropilin-1 …. The assay can be described thus: T7 phage binding to protein-coated magnetic beads.

No end group written: not given here.

AGRGRLVR (also: displayed on T7 phage, fusion site not given here, also called PL3 phage; PL-3 phage) [PL3 peptide displayed on T7 phage (AGRGRLVR)]: the “fold more than heptaglycine control phage” value in assay [1] was roughly 200 fold. Besides, the binding result in assay [2] is “no binding”; in assay [3] it was “binds”.

As for PPRRGLIKLKTS (not fully specified (N-terminus); also: displayed on T7 phage capsid protein, also called PL1 phage) [PL1 peptide displayed on T7 phage (PPRRGLIKLKTS)], the binding result is listed as “binds” in assay [4], “binds” in assay [5] and “no binding” in assay [6].

Source of the values: patent US20220119450A1 (UNIVERSITY OF TARTU, published 2022).
